For orientation: IC50 means the concentration needed to halve the response being measured.

Where “and” joins values, the source holds several entries; their conditions need not be identical. Identical values can stand only once. Like-named read-outs stand apart in the source and are kept apart here.

A short description of series [1]: Thermal stability of cysteine-NEM conjugates by DSC. Format: physicochemical. The conditions noted are these: for First Scan Tm: DSC 25-100 °C, 1 °C per minute; for Second Scan Tm: second identical scan. The method, then:
The thermal stability of cysteine-NEM conjugates was assessed by differential scanning calorimetry (DSC). The only the conjugates tested were those determined to express at high levels, conjugate efficiently, and retain EGFR binding. Additionally, cysteine variants within the BC and FG loops were excluded. Stability data was generated by heating a 400 μL aliquot of the variant from 25° C. to 100° C. at a scan rate of 1° C. per minute in a VP-DSC instrument (MicroCal). A second identical scan was completed on the sample in order to assess the reversibility of thermal folding/unfolding. Data was fitted to a 2-state unfolding model in order to calculate the melting temperature (Table 10).
(DSC measures the heat that a sample takes up or gives off during a temperature scan.)

Series [2] is described as follows: Analytical size exclusion chromatography (percent monomer). Particulars: NEM-conjugated cysteine variants; SEC, Abs280 monomer region 5.5-6 minutes vs oligomer region 4-5.3 minutes. Format: physicochemical. As to the method: Size exclusion chromatography was used to determine the aggregation state of the FN3 domains binding EGFR. Aliquots (10 μL) of each purified FN3 domain were injected onto a Superdex 75 5/150 column (GE Healthcare) at a flow rate of 0.3 mL/min in a mobile phase of PBS pH 7.4. Elution from the column was monitored by absorbance at 280 nm.
The percent monomer for each protein was determined by integrating the Abs280 signal and comparing the peak in the monomer region (5.5-6 minutes) to the peaks in the oligomer region (4-5.3 minutes).
Background: In gel filtration, larger molecules generally elute earlier.

Series [3] concerns EGFR-overexpressing human tumor cell line H1573. The series is described as follows: Cytotoxicity assay in H1573 cells. The series is classed as cell-based. The conditions noted are these: for potency relative to the parent conjugate (in words): VC-MMAF conjugates. As to the method:
Cell killing was assessed by measuring viability of the EGFR-overexpressing human tumor cell line H1573 following exposure to the cysteine variant-cytotoxin conjugates. Cells were plated in black-well, clear bottomed, tissue culture-treated plates (Falcon 353219) at 7000/well in 100 μL/well of phenol red free RPMI media (Gibco 11835-030) with 5% fetal bovine serum (Gibco). Cells were allowed to attach overnight at 37° C. in a humidified 5% CO2 atmosphere. Medium was aspirated from 96-well plate and cells were treated with 50 uL of fresh media and 50 uL of 2× inhibitor made up in fresh media. Cell viability was determined by an endpoint assay with Cell TiterGlo (Promega) at 70 hours. IC50 values were determined by fitting data to the equation for a sigmoidal dose response with variable slope using GraphPad Prism 5 (GraphPad Software). Table 11 reports IC50 values obtained from analysis of the CellTiter Glo data.
Conjugates consisting of ECB147 cysteine variants, 83v2-cys, or Tencon-cys linked to a cytotoxic tubulin inhibitor from the auristatin family (FIG. 2) were tested for target-dependent cytotoxicity in cancer cells. The inhibitor was linked to the cysteine-containing protein via a non-cleavable PEG4 linker or an enzyme-cleavable valine-citrulline or valine-lysine linker. Cell killing was assessed by measuring viability of the EGFR-overexpressing human tumor cell lines H1573 and A431 as well as the EGFR-negative tumor cell line MDA-MB-435 following exposure to the protein-cytotoxin conjugates using the procedure described in Example 4.

Where [4] appears, read: cysteine variants conjugated to VC-MMAF, Cell TiterGlo at 70 hours, read-out: IC50.

B1: G42C (conjugate)
chain: LPAPKNLVVSEVTEDSARLSWDDPWAFYESFLIQYQESEKVCEAIVLTVPGSERSYDLTGLKPGTEYTVSIYGVHNVYKDTNMRGLPLSAIFTT
modifications: left off: small tags and cut ends
Turning to B1, in series [1], the “First Scan Tm” value turned out to be 65 °C and the “Second Scan Tm” value was 67 °C. This molecule also gave a Percent monomer in series [2] of 87%.

B2: P63C (conjugate)
chain: LPAPKNLVVSEVTEDSARLSWDDPWAFYESFLIQYQESEKVGEAIVLTVPGSERSYDLTGLKCGTEYTVSIYGVHNVYKDTNMRGLPLSAIFTT
modifications: left off: small tags and cut ends
Consider B2, for which, in series [1], the “First Scan Tm” value came out at 60 °C and the “Second Scan Tm” value came to 62 °C. The molecule further came in with a Percent monomer in series [2] of 92%.

B3: V49C (conjugate)
chain: LPAPKNLVVSEVTEDSARLSWDDPWAFYESFLIQYQESEKVGEAIVLTCPGSERSYDLTGLKPGTEYTVSIYGVHNVYKDTNMRGLPLSAIFTT
modifications: left off: small tags and cut ends
For B3, in series [1], the “First Scan Tm” value was 54 °C and the “Second Scan Tm” value turned out to be 55 °C. In series [2], this molecule showed a Percent monomer of 88%.

B4: P50C (conjugate)
chain: LPAPKNLVVSEVTEDSARLSWDDPWAFYESFLIQYQESEKVGEAIVLTVCGSERSYDLTGLKPGTEYTVSIYGVHNVYKDTNMRGLPLSAIFTT
modifications: left off: small tags and cut ends
With B4, in series [1], the “First Scan Tm” value worked out at 63 °C and the “Second Scan Tm” value turned out to be 65 °C. In addition, in series [2], the Percent monomer is 100%.

B5: G51C (conjugate)
chain: LPAPKNLVVSEVTEDSARLSWDDPWAFYESFLIQYQESEKVGEAIVLTVPCSERSYDLTGLKPGTEYTVSIYGVHNVYKDTNMRGLPLSAIFTT
modifications: left off: small tags and cut ends
As for B5, in series [1], the “First Scan Tm” value was found to be 61 °C and the “Second Scan Tm” value came out at 61 °C. In series [2], the Percent monomer amounted to 96%.

B6: 83v2His6-cys: P54AR4-83v2 parent with C-terminal cysteine (SEQ ID NOs: 217 and 255); NEM and vcMMAF conjugates (conjugate)
chain: MLPAPKNLVVSEVTEDSARLSWDDPWAFYESFLIQYQESEKVGEAIVLTVPGSERSYDLTGLKPGTEYTVSIYGVHNVYKDTNMRGLPLSAIFTTGGHHHHHHC
modifications: His6 tag, C-terminal Cys; NEM or vcMMAF conjugate; EGFR binding FN3 domain
notes: NEM and vcMMAF conjugates
B6: the IC50 was 0.61 nM and 0.79 nM in series [3] (setting [4]); 0.7 nM in series [3] (vcMMAF conjugate, read-out: average IC50 of two replicates). In addition, in series [1], the “First Scan Tm” value was 71 °C. Besides, the “Second Scan Tm” value in series [1] worked out at 71 °C. In series [2], this molecule yielded a Percent monomer of 97%.

B7: WT: Tencon (SEQ ID NO: 265) cysteine variant conjugated to VC-MMAF as a negative control (conjugate)
chain: LPAPKNLVVSEVTEDSLRLSWTAPDAAFDSFLIQYQESEKVGEAINLTVPGSERSYDLTGLKPGTEYTVSIYGVKGGHRSNPLSAEFTTGGHHHHHHC
modifications: VC-MMAF conjugated via cysteine; Tencon FN3 scaffold
As for B7, in series [3] (setting [4]), the IC50 is 146 nM and 166 nM.

B8: N6C: cysteine variant of P54AR4-83v2 (printed SEQ ID NOS: 210 and 248); NEM and VC-MMAF conjugates (conjugate)
chain: MLPAPKCLVVSEVTEDSARLSWDDPWAFYESFLIQYQESEKVGEAIVLTVPGSERSYDLTGLKPGTEYTVSIYGVHNVYKDTNMRGLPLSAIFTT
modifications: NEM or vcMMAF conjugate; EGFR binding FN3 domain
notes: NEM and VC-MMAF conjugates
With B8, the “potency relative to the parent conjugate (in words)” value in series [3] was “over two times more potent than the parent”. For the same molecule, the IC50 in series [3] (setting [4]) stood at 0.16 nM. In addition, in series [1], the “First Scan Tm” value worked out at 71 °C and the “Second Scan Tm” value is 70 °C. Moreover, the Percent monomer in series [2] is recorded as 94%.

B9: S10C: cysteine variant of P54AR4-83v2 (SEQ ID NOS: 190 and 228); NEM and VC-MMAF conjugates (conjugate)
chain: MLPAPKNLVVCEVTEDSARLSWDDPWAFYESFLIQYQESEKVGEAIVLTVPGSERSYDLTGLKPGTEYTVSIYGVHNVYKDTNMRGLPLSAIFTT
modifications: NEM or vcMMAF conjugate; EGFR binding FN3 domain
notes: NEM and VC-MMAF conjugates
With B9, the IC50 in series [3] (setting [4]) is 0.43 nM. In series [1], the “First Scan Tm” value is 68 °C and the “Second Scan Tm” value worked out at 68 °C. Moreover, the Percent monomer in series [2] amounted to 80%.

B10: E53C: cysteine variant of P54AR4-83v2 (SEQ ID NOS: 204 and 242); NEM and VC-MMAF conjugates (conjugate)
chain: MLPAPKNLVVSEVTEDSARLSWDDPWAFYESFLIQYQESEKVGEAIVLTVPGSCRSYDLTGLKPGTEYTVSIYGVHNVYKDTNMRGLPLSAIFTT
modifications: NEM or vcMMAF conjugate; EGFR binding FN3 domain
notes: NEM and VC-MMAF conjugates
As for B10, the “potency relative to the parent conjugate (in words)” value in series [3] is given as “over two times more potent than the parent”. Further, in series [3] (setting [4]), the IC50 came out at 0.09 nM. For the same molecule, in series [1], the “First Scan Tm” value stood at 76 °C and the “Second Scan Tm” value was found to be 75 °C. In series [2], this molecule registered a Percent monomer of 97%.

B11: T93C: cysteine variant of P54AR4-83v2 (SEQ ID NOS: 216 and 254); NEM and VC-MMAF conjugates (conjugate)
chain: MLPAPKNLVVSEVTEDSARLSWDDPWAFYESFLIQYQESEKVGEAIVLTVPGSERSYDLTGLKPGTEYTVSIYGVHNVYKDTNMRGLPLSAIFCT
modifications: NEM or vcMMAF conjugate; EGFR binding FN3 domain
notes: NEM and VC-MMAF conjugates
As for B11, the “potency relative to the parent conjugate (in words)” value in series [3] is on record as “over two times more potent than the parent”. In series [3] (setting [4]), the IC50 stood at 0.2 nM. In addition, in series [1], the “First Scan Tm” value turned out to be 69 °C and the “Second Scan Tm” value is 69 °C. This molecule also had a Percent monomer in series [2] of 100%.

B12: E11C: cysteine variant of P54AR4-83v2 (SEQ ID NOS: 191 and 229); NEM and VC-MMAF conjugates (conjugate)
chain: MLPAPKNLVVSCVTEDSARLSWDDPWAFYESFLIQYQESEKVGEAIVLTVPGSERSYDLTGLKPGTEYTVSIYGVHNVYKDTNMRGLPLSAIFTT
modifications: NEM or vcMMAF conjugate; EGFR binding FN3 domain
notes: NEM and VC-MMAF conjugates
With B12, the IC50 in series [3] (setting [4]) is 0.94 nM. For the same molecule, in series [1], the “First Scan Tm” value worked out at 71 °C and the “Second Scan Tm” value came out at 72 °C. In series [2], the Percent monomer worked out at 100%.

B13: E14C: cysteine variant of P54AR4-83v2 (SEQ ID NOS: 192 and 230); NEM and VC-MMAF conjugates (conjugate)
chain: MLPAPKNLVVSEVTCDSARLSWDDPWAFYESFLIQYQESEKVGEAIVLTVPGSERSYDLTGLKPGTEYTVSIYGVHNVYKDTNMRGLPLSAIFTT
modifications: NEM or vcMMAF conjugate; EGFR binding FN3 domain
notes: NEM and VC-MMAF conjugates
In the case of B13, the IC50 in series [3] (setting [4]) turned out to be 0.34 nM. Moreover, in series [1], the “First Scan Tm” value stood at 70 °C and the “Second Scan Tm” value was found to be 71 °C. Further, the Percent monomer in series [2] stood at 96%.

B14: V8C: cysteine variant of P54AR4-83v2 (SEQ ID NOS: 189 and 227); NEM and VC-MMAF conjugates (conjugate)
chain: MLPAPKNLCVSEVTEDSARLSWDDPWAFYESFLIQYQESEKVGEAIVLTVPGSERSYDLTGLKPGTEYTVSIYGVHNVYKDTNMRGLPLSAIFTT
modifications: NEM or vcMMAF conjugate; EGFR binding FN3 domain
notes: NEM and VC-MMAF conjugates
As to B14, in series [3] (setting [4]), the IC50 was determined as 0.35 nM. For the same molecule, in series [1], the “First Scan Tm” value worked out at 69 °C and the “Second Scan Tm” value is 69 °C. In series [2], this molecule came in with a Percent monomer of 91%.

Values taken from US11702475B2, “Cysteine engineered fibronectin type III domain binding molecules” (Janssen Biotech, Inc., priority 2013, dated 2023).
